Measured values: paper PMC11144326, “Structure–function characterization of two enzymes from novel subfamilies of manganese peroxidases secreted by the lignocellulose-degrading Agaricales fungi Agrocybe pediades and Cyathus striatus” (Biotechnology for Biofuels and Bioproducts, 2024)
Where two headings read alike, the source gives them in different places.

Assays:
Ape-MnP1 [1] = assay: steady-state oxidation, coerulignone formation at […] nm; type: biochemical, Agrocybe pediades; details: 0.3 mM H2O2, 100 mM sodium tartrate, optimal pH, 25 °C; read-out: Ape-MnP1 Q333P
Ape-MnP1 [2] = details: read-out: Ape-MnP1 Q333P; 0.3 mM H2O2, 100 mM sodium tartrate, optimal pH, 25 °C
purified protein [3] = substrate: CCn1c(=NN=c2sc3cc(S(=O)(=O)O)ccc3n2CC)sc2cc(S(=O)(=O)O)ccc21; assay: purified protein; type: biochemical, Cyathus striatus; details: 0.3 mM H2O2, 100 mM sodium tartrate, optimal pH, 25 °C
purified protein [4] = substrate: COc1cccc(OC)c1O; assay: purified protein; type: biochemical, Cyathus striatus; details: 0.3 mM H2O2, 100 mM sodium tartrate, optimal pH, 25 °C
purified protein [5] = substrate: CCn1c(=NN=c2sc3cc(S(=O)(=O)O)ccc3n2CC)sc2cc(S(=O)(=O)O)ccc21; assay: purified protein; type: biochemical, Agrocybe pediades; details: 0.3 mM H2O2, 100 mM sodium tartrate, optimal pH, 25 °C
purified protein [6] = substrate: COc1cccc(OC)c1O; assay: purified protein; type: biochemical, Agrocybe pediades; details: 0.3 mM H2O2, 100 mM sodium tartrate, optimal pH, 25 °C

Molecule | Km (purified protein [3]) | kcat (purified protein [3]) | kcat/Km (purified protein [3]) | Km (purified protein [4]) | kcat (purified protein [4]) | kcat/Km (purified protein [4]) | further results
COc1cccc(OC)c1O [DMP] | – | – | – | – | – | – | Km (Ape-MnP1 [1]): 2900 ± 590 µM
CCn1c(=NN=c2sc3cc(S(=O)(=O)O)ccc3n2CC)sc2cc(S(=O)(=O)O)ccc21 [ABTS] | – | – | – | – | – | – | Km (Ape-MnP1 [2]): 1890 ± 250 µM
Cst-MnP1 (Cyathus striatus) (protein) VTCPDGHVTANRACCALFPVVQNLQENLFDGGECGEEAHSALRLSFHDAIGFSLNSNKGGGADGSILLFNATELTFHANGGIDDITSRQFPVFETTGLTPGDFVHLAGAVGTANCPGAPRLQFMFGRPPPIAPAPDLTVPEPTDDVDAILARFADAGFDASEVVALLSSHTIAAADVVDVTIPGTPFDSTVGTFDTQVFLEVLLAGRSFPGNGSQPGEVLSPLAGEMRLQSDFVVSRDSRTACLWQAMVNNQQLMVSSFAAAMAKLQVLGQNVNTMVDCSDVIPEPAPFAGPIKFPASFSMADVEQACASTFPQIQTVAGPAPTVAPVPGS | 3250 ± 220 µM | 60 ± 1.4 s⁻¹ | 18000 ± 1300 M⁻¹ s⁻¹ | 4650 ± 560 µM | 4.2 ± 0.2 s⁻¹ | 980 ± 120 M⁻¹ s⁻¹ | –
Cst-MnP1 (Cyathus striatus; E36A) (protein) VTCPDGHVTANRACCALFPVVQNLQENLFDGGECGAEAHSALRLSFHDAIGFSLNSNKGGGADGSILLFNATELTFHANGGIDDITSRQFPVFETTGLTPGDFVHLAGAVGTANCPGAPRLQFMFGRPPPIAPAPDLTVPEPTDDVDAILARFADAGFDASEVVALLSSHTIAAADVVDVTIPGTPFDSTVGTFDTQVFLEVLLAGRSFPGNGSQPGEVLSPLAGEMRLQSDFVVSRDSRTACLWQAMVNNQQLMVSSFAAAMAKLQVLGQNVNTMVDCSDVIPEPAPFAGPIKFPASFSMADVEQACASTFPQIQTVAGPAPTVAPVPGS | 1900 ± 455 µM | 67 ± 18 s⁻¹ | 35500 ± 12800 M⁻¹ s⁻¹ | 2120 ± 500 µM | 2.62 ± 0.17 s⁻¹ | 1240 ± 300 M⁻¹ s⁻¹ | –
Cst-MnP1 (Cyathus striatus; S40A) (protein) VTCPDGHVTANRACCALFPVVQNLQENLFDGGECGEEAHAALRLSFHDAIGFSLNSNKGGGADGSILLFNATELTFHANGGIDDITSRQFPVFETTGLTPGDFVHLAGAVGTANCPGAPRLQFMFGRPPPIAPAPDLTVPEPTDDVDAILARFADAGFDASEVVALLSSHTIAAADVVDVTIPGTPFDSTVGTFDTQVFLEVLLAGRSFPGNGSQPGEVLSPLAGEMRLQSDFVVSRDSRTACLWQAMVNNQQLMVSSFAAAMAKLQVLGQNVNTMVDCSDVIPEPAPFAGPIKFPASFSMADVEQACASTFPQIQTVAGPAPTVAPVPGS | 2990 ± 455 µM | 112 ± 4.6 s⁻¹ | 37500 ± 5900 M⁻¹ s⁻¹ | – | – | – | –
Ape-MnP1 (Agrocybe pediades) (protein) TICADGTSVANGACCKLIPVVKDLTENLFEGECGDAAHGALRLVFHDAIAISPTLGGGGADGSIAVFNATELTFHANTGIDDVLDAVGPFLLKHSDVMTPGDFIQLAGAVSLTQCNGAPRVKFVMGRPPPKAAAPNLLVPEPFDSVATILQRFGELGFTKEETVAVIGGSHSVAGADDIVPNEQGIPFDQTPSIFDTQIFVDVQLRGTMIPGNGTTEGEVETAVPGTVRLQSDHLLARDASTSCIWQSFVNQQSKMAQVFGEAIFKMSLLGQTQSKLIDCSEVIPRAIPFSHGPATLPPGQTLKDIEQACAASPFPTLSTQPGPVTSVPAIPQADDS | – | – | – | – | – | – | Km (purified protein [5]): 2730 ± 280 µM; kcat (purified protein [5]): 146 ± 6 s⁻¹; kcat/Km (purified protein [5]): 53000 ± 6000 M⁻¹ s⁻¹; Km (purified protein [6]): 2880 ± 490 µM; kcat (purified protein [6]): 11.5 ± 0.8 s⁻¹; kcat/Km (purified protein [6]): 4200 ± 500 M⁻¹ s⁻¹
